Test results published in patent US20160031958A1 (OREGON HEALTH AND SCIENCE UNIVERSITY, published 2016).
Numbering of substitutions follows the chain as printed. Names and notes keep the numbering of the source.

Experiments:
[1] = target: T1, HA-REST E1009A/S1013A/S1024A/S1027A/S1030A (human, UniProt Q13127 1-1097); experiment: GST pull-down on glutathione agarose from co-transfected HEK293T cells, Western blot
T1 construct: mature; Expressed in HEK293T cells and tested in cell extracts; also called E1009A/S1013/24/27/30A; REST degron mutant; not shown: HA tag
T1 sequence (looked up): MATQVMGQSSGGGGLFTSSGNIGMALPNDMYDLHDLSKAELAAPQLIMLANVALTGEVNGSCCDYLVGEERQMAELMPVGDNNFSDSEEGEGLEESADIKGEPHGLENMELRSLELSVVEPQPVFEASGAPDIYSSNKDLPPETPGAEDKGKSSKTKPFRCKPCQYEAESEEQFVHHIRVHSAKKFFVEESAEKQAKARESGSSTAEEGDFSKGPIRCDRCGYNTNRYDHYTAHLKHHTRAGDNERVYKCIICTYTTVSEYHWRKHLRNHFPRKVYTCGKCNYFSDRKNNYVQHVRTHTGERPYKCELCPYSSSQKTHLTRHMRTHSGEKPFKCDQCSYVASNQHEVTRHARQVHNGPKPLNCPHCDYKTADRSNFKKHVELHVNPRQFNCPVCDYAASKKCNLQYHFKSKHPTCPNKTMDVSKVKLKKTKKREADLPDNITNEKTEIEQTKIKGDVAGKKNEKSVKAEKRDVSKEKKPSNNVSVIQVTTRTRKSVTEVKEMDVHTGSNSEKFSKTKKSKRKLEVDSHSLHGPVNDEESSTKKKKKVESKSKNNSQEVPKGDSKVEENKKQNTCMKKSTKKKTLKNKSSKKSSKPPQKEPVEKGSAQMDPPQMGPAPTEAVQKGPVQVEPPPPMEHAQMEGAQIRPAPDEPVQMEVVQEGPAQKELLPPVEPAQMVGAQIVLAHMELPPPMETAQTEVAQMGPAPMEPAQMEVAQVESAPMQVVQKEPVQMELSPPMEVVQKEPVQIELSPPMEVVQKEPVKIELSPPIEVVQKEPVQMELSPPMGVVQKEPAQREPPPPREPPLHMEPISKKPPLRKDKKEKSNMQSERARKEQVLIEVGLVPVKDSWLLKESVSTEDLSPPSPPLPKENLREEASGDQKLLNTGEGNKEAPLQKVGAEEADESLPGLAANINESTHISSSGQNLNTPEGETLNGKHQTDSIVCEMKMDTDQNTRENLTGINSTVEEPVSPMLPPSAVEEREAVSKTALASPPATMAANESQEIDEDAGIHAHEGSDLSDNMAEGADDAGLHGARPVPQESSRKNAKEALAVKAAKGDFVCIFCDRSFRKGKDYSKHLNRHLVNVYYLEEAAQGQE
Method: HA-REST cDNAs were transfected into HEK293T cells along with GST-βTrCP, and FLAG-Dominant Negative Cull to stabilize REST. Cell extracts were collected on glutathione agarose and probed with anti-HA or anti-GST antibodies.
Whole cell lysates were prepared and immunoprecipitated following the procedures in Ballas N et al, 2001 supra and Nesti E et al, Mol Biol Cell 15, 4073-4088 (2004); incorporated by reference herein. Western blots were performed by standard procedures using antibodies described below and analyzed using anti IgG conjugated to infrared dyes (ThermoFisher) on an Odyssey® infrared fluorescence imager (LiCor). For detecting phosphorylated REST at S861/S864, cell extracts were prepared lacking phosphatase inhibitors. For phosphatase treatment, 75 μg of total protein was treated with 600 U lambda phosphatase (New England Biolabs) or with buffer alone at 30° C. for 1 h, according to the manufacturer's protocol. Thirty-five μg of treated protein were resolved by SDS-PAGE and Western blotted with the non-phospho-depleted anti REST phospho antibody (rabbit #101) at 1:500 in 3% BSA/1×TBS-0.5% Tween-20® overnight at 4° C., followed by anti-rabbit IgG-IR680 conjugated secondary antibody (Thermo Fisher) at 1:15000 in 5% milk/TBS-Tween for 1 hour at room temp. Infrared fluorescence was detected on the Odyssey® imager (LiCor) in the 700 nm channel. […]

[2] = target: T2, Pin1 (peptidyl-prolyl cis/trans isomerase), human (human, UniProt Q13526 1-163); experiment: co-immunoprecipitation from transfected HEK293T cells, Western blot
T2 construct: also called Human Pin1
T2 sequence (Q13526 whole entry): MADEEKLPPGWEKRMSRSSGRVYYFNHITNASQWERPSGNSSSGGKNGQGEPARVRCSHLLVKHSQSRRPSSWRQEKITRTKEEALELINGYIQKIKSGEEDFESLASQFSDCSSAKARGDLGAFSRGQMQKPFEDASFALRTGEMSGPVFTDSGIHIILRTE
Method: FIG. 4A is an image of a Western blot of co-immunoprecipitation analysis showing Pin1 is present in REST (810-910) immunoprecipitates in a phospho-dependent manner. HEK293T cells were transfected with Pin1 cDNA and either WT or mutant (S861A/S864A) FLAG-REST (810-910) or FLAG-control (595-694) peptide cDNAs (FIG. 3). After 48 hours, the cells were extracted and immunoprecipitated. Western blots were probed with the indicated antibodies.
To confirm this, HEK cells were transfected with FLAG-Pin1 and cDNAs encoding the 100 amino acid peptides described above containing an S861/S864 or an S861A/S864A sites. Pin1 was present in immunocomplexes of unmutated REST (810-910) reporter peptides, but not phosphorylation-resistant mutant S861A/S864A peptides (FIG. 4A). […]
Whole cell lysates were prepared and immunoprecipitated following the procedures in Ballas N et al, 2001 supra and Nesti E et al, Mol Biol Cell 15, 4073-4088 (2004); incorporated by reference herein. Western blots were performed by standard procedures using antibodies described below and analyzed using anti IgG conjugated to infrared dyes (ThermoFisher) on an Odyssey® infrared fluorescence imager (LiCor). […]

HA-REST S861A/S864A = target: T3, HA-REST S861A/S864A (human, UniProt Q13127 1-1097); experiment: FLAG immunoprecipitation from transfected HEK293T cells, Western blot
T3 construct: mature; Expressed in HEK293T cells and tested in cell extracts; also called mutant S861A/S864A REST; not shown: HA tag
T3 sequence (looked up): T1 sequence (looked up) with S861A, S864A, A1009E, A1013S, A1024S, A1027S, A1030S
From the text: CTDSP1 was first identified as a nuclear phosphatase targeting the C-terminus of RNA polymerase II (R HR et al, BMB Rep 47, 192-196 (2014); Feng Y et al, Biochem Biophys Res Commun 397, 355-360 (2010); and Zhang Y et al, Mol Cell 24, 759-770 (2006); all of which are incorporated by reference herein). Subsequently it was implicated in REST repression of neuronal gene expression in P19 embryonal carcinoma cells that have the capacity to differentiate into neurons (Visvanathan J et al, Genes Dev 21, 744-749 (2007); incorporated by reference herein). […] REST was detected in FLAG-immunocomplexes only when the site was unmutated or double-substituted with glutamate, a phosphorylation-mimic.
Whole cell lysates were prepared and immunoprecipitated following the procedures in Ballas N et al, 2001 supra and Nesti E et al, Mol Biol Cell 15, 4073-4088 (2004); incorporated by reference herein. Western blots were performed by standard procedures using antibodies described below and analyzed using anti IgG conjugated to infrared dyes (ThermoFisher) on an Odyssey® infrared fluorescence imager (LiCor). […] Infrared fluorescence was detected on the Odyssey® imager (LiCor) in the 700 nm channel. […]

B1: GST-βTrCP (other, UniProt Q9Y297 1-605, looked up)
chain: MDPAEAVLQEKALKFMCSMPRSLWLGCSSLADSMPSLRCLYNPGTGALTAFQNSSEREDCNNGEPPRKIIPEKNSLRQTYNSCARLCLNQETVCLASTAMKTENCVAKTKLANGTSSMIVPKQRKLSASYEKEKELCVKYFEQWSESDQVEFVEHLISQMCHYQHGHINSYLKPMLQRDFITALPARGLDHIAENILSYLDAKSLCAAELVCKEWYRVTSDGMLWKKLIERMVRTDSLWRGLAERRGWGQYLFKNKPPDGNAPPNSFYRALYPKIIQDIETIESNWRCGRHSLQRIHCRSETSKGVYCLQYDDQKIVSGLRDNTIKIWDKNTLECKRILTGHTGSVLCLQYDERVIITGSSDSTVRVWDVNTGEMLNTLIHHCEAVLHLRFNNGMMVTCSKDRSIAVWDMASPTDITLRRVLVGHRAAVNVVDFDDKYIVSASGDRTIKVWNTSTCEFVRTLNGHKRGIACLQYRDRLVVSGSSDNTIRLWDIECGACLRVLEGHEELVRCIRFDNKRIVSGAYDGKIKVWDLVAALDPRAPAGTLCLRTLVEHSGRVFRLQFDEFQIVSSSHDDTILIWDFLNDPAAQAEPPRSPSRTYTYISR
notes: also called βTrCP-GST fusion; bTrCP; not shown: GST
Does B1 bind [1]?
Result: no binding

B2: FLAG-REST (810-910)-GFP reporter peptide S861A/S864A (peptide)
chain: ISKKPPLRKDKKEKSNMQSERARKEQVLIEVGLVPVKDSWLLKESVSTEDLAPPAPPLPKENLREEASGDQKLLNTGEGNKEAPLQKVGAEEADESLPGLA
notes: also called mutant (S861A/S864A) FLAG-REST (810-910); phosphorylation-resistant mutant S861A/S864A peptide; not shown: N-terminal FLAG tag with linker; C-terminal eGFP tag (pEGFP-N1)
Does B2 bind [2]?
Result: no binding

B3: FLAG-CTDSP1 (enzyme, not shown: small tags and cut ends)
chain: MDSSAVITQISKEEARGPLRGKGDQKSAASQKPRSRGILHSLFCCVCRDDGEALPAHSGAPLLVEENGAIPKQTPVQYLLPEAKAQDSDKICVVIDLDETLVHSSFKPVNNADFIIPVEIDGVVHQVYVLKRPHVDEFLQRMGELFECVLFTASLAKYADPVADLLDKWGAFRARLFRESCVFHRGNYVKDLSRLGRDLRRVLILDNSPASYVFHPDNAVPVASWFDNMSDTELHDLLPFFEQLSRVDDVYSVLRQPRPGS
notes: also called C-terminal domain small phosphatase
Does B3 bind (HA-REST S861A/S864A)?
Result: no binding
